These are literature values, as cited in paper PMC7191063.

The term pKd denotes the Kd on a negative log10 scale, so that one unit is a factor of ten. By pKi is commonly meant the negative decadic logarithm of the Ki, by convention in mol/L.

pKd, pKi: −log10 of the molar value.

Series [1] deals with trypsin (Bos taurus) (UniProt P00760).
For series [2] the target is unchanged. The source holds these as a separate data set.

UniProt P00760, sequence (P00760 149-246): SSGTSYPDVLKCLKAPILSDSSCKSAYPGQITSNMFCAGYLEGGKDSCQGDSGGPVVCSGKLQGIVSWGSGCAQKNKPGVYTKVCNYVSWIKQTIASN

Regarding VhTI (from UniProt P85981), in the series with trypsin (Bos taurus) [1], the pKd is above 9.00.

BWI-2c (from UniProt P86794): the negative logarithm of the Ki (pKi) in the series with trypsin (Bos taurus) [2] was 9.76.
